In patent publication US20020009726A1 (LA JOLLA CANCER RESEARCH FOUNDATION, published 2002):

Assays:
LexA fusion of Lamin-C = target: T1, LexA fusion of Lamin-C (UniProt P0A7C2 1-202; P02545 66-230); assay: yeast two-hybrid, beta-galactosidase (lacZ reporter)
T1 sequence (looked up): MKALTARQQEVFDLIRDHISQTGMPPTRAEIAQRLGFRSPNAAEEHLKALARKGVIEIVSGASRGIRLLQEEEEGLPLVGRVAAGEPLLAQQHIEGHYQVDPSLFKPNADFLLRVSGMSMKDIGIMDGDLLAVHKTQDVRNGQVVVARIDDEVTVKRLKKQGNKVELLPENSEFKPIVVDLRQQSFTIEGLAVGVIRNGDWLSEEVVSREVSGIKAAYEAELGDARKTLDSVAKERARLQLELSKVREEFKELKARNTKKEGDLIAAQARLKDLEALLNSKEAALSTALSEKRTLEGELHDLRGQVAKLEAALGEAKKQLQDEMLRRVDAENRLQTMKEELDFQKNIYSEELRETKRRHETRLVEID
Protocol: (§1) The 166 clones were cured of LexA/CD40-encoding plasmids by growing the cells in tryptophan-containing medium. […] The mated cells were selected for growth in medium lacking tryptophan and leucine to obtain cells that contained both a pACT-B cell clone and a LexA-fusion protein. Colonies were transferred to histidine-deficient plates or histidine-containing media with X-Gal. Colonies expressing β-gal activity were identified using a plate assay and a filter assay. The plate assay was performed on the X-Gal containing plates -12 hr after plating according to previous methods (see Chien et al., Proc. Natl. Acad. Sci., USA 88:9578-9582 (1991), which is incorporated herein by reference). The β-gal filter assay was performed after 1 hr culture as described previously (Sato et al., supra, 1994; Breeden and Nasmyth, Cold Spring Harbor Symp. Quant. biol. 50:643-650 (1985), which is incorporated herein by reference).

[1] = target: LexA fusion of Ha-Ras (V12) (UniProt P0A7C2 1-202; P01112 1-189, limits assumed); assay: yeast two-hybrid, growth on histidine-deficient medium (HIS3 reporter)
Protocol: as §1

[2] = target: T2, LexA fusion of Bcl-2 (positions 83-218) (UniProt P0A7C2 1-202; P10415 83-218); assay: as above
T2 construct: also called Bcl-2 (83-218)
Protocol: as §1

Measured: binding result

B1: CAP-1 (pACT2229/GAL4 fusion) (other, not shown: small tags and cut ends)
chain: HDQMLSVHDIRLADMDLRFQVLETASYNGVLIWKIRDYKRRKQEAVMGKTLSLYSQPFYTGYFGYKMCARVYLNGDGMGKGTHLSLFFVIMRGEYDALLPWPFKQKVTLMLMDQGSSRRHLGDAFKPDPNSSSFKKPTGEMNIASGCPVFVAQTVLENGTYIKDDTIFIKVIVDTSDLPDP
notes: Yeast two-hybrid prey; also called pACT121; CD40 associated protein-1
no binding: LexA fusion of Lamin-C | [1] | [2]
